From patent publication US6432645B1, “Beta subunits of Slo family potassium channels” (ICAgen Inc., priority 1999, dated 2002) come the findings set out here.

The target of one experiment is T1, Slo-1/BKB3 (Homo sapiens, UniProt Q12791).
T1 construct: expressed in transfected cells; host or cells: HEK293
Briefly: Whole-cell voltage-clamp of membrane currents in HEK293 cells co-expressing Slo-1 and BK beta 3. As to conditions: Slo-1 + BK beta 3 in HEK293 cells, 250 ms depolarizing steps from holding potential -80 mV; for sensitivity (block) of membrane currents: CTX 100 nM. It is filed as cell-based. Here is the method: (§1) FIGS. 6A-B. Slo-1/BKB3 forms BK type II-like charybdotoxin—(CTX) insensitive channels. Slo-1 (A) or Slo-1+BK beta 3 (B) were expressed in HEK293 cells and membrane currents measured using the whole-cell voltage-clamp technique. […]. In contrast, membrane currents in cells co-expressing Slo-1 and BK beta 3 were TEA (5 mM) sensitive but CTX (100 nM) insensitive (FIG. 6B). Similar recordings were made from 4 cells expressing Slo-1 alone and 6 cells co-expressing Slo-1/BKB3. Scale bars represent 1 nA and 200 ms.

The target in experiment [1] is T2, Slo-1 (Homo sapiens, UniProt Q12791). Briefly: Whole-cell voltage-clamp of membrane currents in HEK293 cells expressing Slo-1 alone. The following applies: Slo-1 alone in HEK293 cells, 250 ms depolarizing steps from holding potential -80 mV; for inhibition (block) of membrane currents: CTX 100 nM. More on the design: expressed in transfected cells; host or cells: HEK293. Type of experiment: cell-based. Here is the method:
as §1

The target in experiment [2] is T2, Slo-1. Nature of the experiment: cell-based or functional assay.

T2 sequence (Q12791 whole entry): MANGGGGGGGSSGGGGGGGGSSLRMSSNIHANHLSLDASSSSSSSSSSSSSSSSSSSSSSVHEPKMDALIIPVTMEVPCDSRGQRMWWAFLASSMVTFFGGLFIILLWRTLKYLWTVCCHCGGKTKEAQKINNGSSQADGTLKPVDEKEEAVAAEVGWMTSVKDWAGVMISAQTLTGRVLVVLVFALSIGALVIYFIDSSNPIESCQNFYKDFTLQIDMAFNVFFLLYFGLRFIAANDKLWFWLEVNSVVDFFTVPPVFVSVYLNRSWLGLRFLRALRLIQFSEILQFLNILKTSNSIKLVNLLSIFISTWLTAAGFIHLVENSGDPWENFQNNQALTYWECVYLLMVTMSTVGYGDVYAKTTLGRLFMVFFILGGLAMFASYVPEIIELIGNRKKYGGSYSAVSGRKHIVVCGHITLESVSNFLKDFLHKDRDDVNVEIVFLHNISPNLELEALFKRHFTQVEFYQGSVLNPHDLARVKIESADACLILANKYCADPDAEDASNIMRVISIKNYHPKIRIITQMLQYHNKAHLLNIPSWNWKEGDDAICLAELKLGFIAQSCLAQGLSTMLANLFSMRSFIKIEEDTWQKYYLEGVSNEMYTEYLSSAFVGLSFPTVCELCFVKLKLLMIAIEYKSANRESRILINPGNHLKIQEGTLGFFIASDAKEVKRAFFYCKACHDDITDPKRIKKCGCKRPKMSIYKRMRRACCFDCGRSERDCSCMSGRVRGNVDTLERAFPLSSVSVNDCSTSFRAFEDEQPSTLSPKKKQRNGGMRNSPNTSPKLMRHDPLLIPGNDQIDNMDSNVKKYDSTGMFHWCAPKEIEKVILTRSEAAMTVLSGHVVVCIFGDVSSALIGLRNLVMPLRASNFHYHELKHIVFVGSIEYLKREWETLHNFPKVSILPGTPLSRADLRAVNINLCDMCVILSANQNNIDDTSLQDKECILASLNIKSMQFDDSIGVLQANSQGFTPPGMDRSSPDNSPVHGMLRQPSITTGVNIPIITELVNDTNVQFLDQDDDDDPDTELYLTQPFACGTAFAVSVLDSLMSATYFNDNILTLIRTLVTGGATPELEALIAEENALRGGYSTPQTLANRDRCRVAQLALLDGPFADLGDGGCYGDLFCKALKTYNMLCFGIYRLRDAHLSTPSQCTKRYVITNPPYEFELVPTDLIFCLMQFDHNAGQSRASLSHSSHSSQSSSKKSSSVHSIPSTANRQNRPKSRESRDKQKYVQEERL
T1 sequence (Q12791 whole entry): as above
T1 sequence (Q86W47 whole entry W137E partner): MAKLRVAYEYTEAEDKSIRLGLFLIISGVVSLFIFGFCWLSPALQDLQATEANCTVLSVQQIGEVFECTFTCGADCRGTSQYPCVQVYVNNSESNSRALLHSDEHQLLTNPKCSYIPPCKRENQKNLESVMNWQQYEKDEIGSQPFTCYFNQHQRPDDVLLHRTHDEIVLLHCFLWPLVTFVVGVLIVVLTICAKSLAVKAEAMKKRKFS

Consider `CC[N+](CC)(CC)CC` [TEA], for which the “sensitivity of membrane currents” value on Slo-1/BKB3 (TEA 5 mM) is “sensitive”. Moreover, the “inhibition of membrane currents” value against Slo-1 [1] (TEA 5 mM) is on record as “strongly inhibited”.
Take charybdotoxin [CTX]: the “sensitivity (block) of membrane currents” value is “insensitive” in the experiment with Slo-1/BKB3 and “virtually unblocked” in the experiment with Slo-1/BKB3 (listed as charybdotoxin). Besides, the “inhibition (block) of membrane currents” value is “strongly inhibited” with Slo-1 [1] and “almost completely blocked” with Slo-1 [1] (listed as charybdotoxin).
Consider human BK beta 3, for which the shift of the Slo-1 activation curve (V1/2 act), patch clamp, 50 uM free Ca2+ in the experiment with Slo-1 [2] stood at 15 mV.
